According to paper doi:10.1101/2022.02.17.480855:
pKd: −log10 of the molar value.

Molecular target: FtsZ from Synechococcus 7942 (Synechococcus 7942)
Experiment: MST

Microcystin-LR (peptide)
pKd: 5.95
